Residue numbers refer to the chain shown, from its start.

Data set [1] addresses T1, RccR H148A H148A (Pseudomonas aeruginosa PAO1) (UniProt Q9HTC8).
T1 sequence: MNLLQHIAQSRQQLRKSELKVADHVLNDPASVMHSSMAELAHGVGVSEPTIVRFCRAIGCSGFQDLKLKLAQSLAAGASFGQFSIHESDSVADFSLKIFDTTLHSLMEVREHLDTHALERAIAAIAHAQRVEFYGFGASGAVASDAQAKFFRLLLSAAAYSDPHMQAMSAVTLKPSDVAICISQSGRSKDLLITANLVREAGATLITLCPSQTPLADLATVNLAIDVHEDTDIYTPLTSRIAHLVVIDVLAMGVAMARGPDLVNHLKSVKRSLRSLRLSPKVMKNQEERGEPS
Briefly: EMSA. Conditions: EMSA: 10 nM FAM-DNA, 20 mM Tris-HCl pH 8.5, 150 mM KCl, 5 mM MgCl2, 1 mM EDTA, 1 mM DTT, 0.8% Tween 20, 2.5% glycerol, on ice 30 min; 6% native PAGE, 0.5x TBE.

The target in data set [2] is T2, RccR H164A H164A (Pseudomonas aeruginosa PAO1) (UniProt Q9HTC8).
T2 sequence: T1 sequence with A148H, H164A
The data set is described as follows: EMSA. Conditions: EMSA: 10 nM FAM-DNA, 20 mM Tris-HCl pH 8.5, 150 mM KCl, 5 mM MgCl2, 1 mM EDTA, 1 mM DTT, 0.8% Tween 20, 2.5% glycerol, on ice 30 min; 6% native PAGE, 0.5x TBE.

For data set [3], the target named is T3, RccR S139A S139A (Pseudomonas aeruginosa PAO1) (UniProt Q9HTC8).
T3 sequence: T1 sequence with S139A, A148H
Briefly: EMSA. Conditions: EMSA: 10 nM FAM-DNA, 20 mM Tris-HCl pH 8.5, 150 mM KCl, 5 mM MgCl2, 1 mM EDTA, 1 mM DTT, 0.8% Tween 20, 2.5% glycerol, on ice 30 min; 6% native PAGE, 0.5x TBE.

The target in data set [4] is T4, RccR WT (Pseudomonas aeruginosa PAO1) (UniProt Q9HTC8).
T4 sequence: T1 sequence with A148H
Briefly: EMSA. Conditions: EMSA: 10 nM FAM-DNA, 20 mM Tris-HCl pH 8.5, 150 mM KCl, 5 mM MgCl2, 1 mM EDTA, 1 mM DTT, 0.8% Tween 20, 2.5% glycerol, on ice 30 min; 6% native PAGE, 0.5x TBE. (In general: A gel shift assay detects complexes by their altered migration in electrophoresis.)

Data set [5] has as its target RccR (PA5438), RpiR family transcription factor of Pseudomonas aeruginosa PAO1 (Pseudomonas aeruginosa PAO1). Briefly: crystal structure.

Turning to “GGCTTGCTCCAGGGCGGAAAGGCTTCCAGAATCGGATGCCATAGGTGAGCGGCCGGCCTCGTGGGCGACCGCAGCTAATTCTTGGATGTTCTCCGGGGGTGTACCCGGCGACTTGTAGTTTTACTACAGATCAGTCTGAGAAACAGCCCTCTGGATACAATTTTTAGTAGTAAAACTACATTTCGATTGTCGCTGTCAGGCTATAAGGCCCGATGT (double strand) [aceE promoter]”, the binding entry is “no binding” in data set [1], “no binding” in data set [2], “no binding” in data set [3] and “binds” in data set [4].

As to “RccR (PA5438), RpiR family transcription factor of Pseudomonas aeruginosa PAO1 (natural protein)”, the stoichiometry N (in general, the number of molecules, sites or subunits per partner or assembly) in data set [5] was 4.

With “TGTTTGCCTCACTCTGCTCTAGACCAGCTCTGGACCCGGGCCGCACGGCCTTGTAGTCCGAGCCGCGGCATACTACATGATGCCGCGGGAAAAATCAGTGGTTACGCGTCGCGTTACGACTGGATGACGCTTCACGGTCACGTTGGCCAGGCTCAATGTTCGCAAAAAAACTGTACTTTGTTCCAGATAAATCTAAAAACAGTACACGATTTATCACGAGCCCA (double strand) [glcB promoter]”, the binding result in data set [4] was “binds”.

The values above are taken from PMC10810197, “A KDPG sensor RccR governs Pseudomonas aeruginosa carbon metabolism and aminoglycoside antibiotic tolerance” (Nucleic Acids Research, 2023).
